Results from publication PMC3769224.

What was measured:
[1] = target: BRAG2^(Sec7-PH 390–763) (human)
[2] = target: BRAG2^Sec7 (human)
[3] = target: BRAG2^(Sec7-PH 390–811) (human)

kcat/Km of GDP/GTP exchange in solution (tryptophan fluorescence kinetics, 37°C, 1 µM Arf) [1] [M⁻¹ s⁻¹] | kcat/Km of GDP/GTP exchange in solution (tryptophan fluorescence kinetics, 37°C, 1 µM Arf) [2] [M⁻¹ s⁻¹] | kcat/Km of GDP/GTP exchange in solution (tryptophan fluorescence kinetics, 37°C, 1 µM Arf) [3] [M⁻¹ s⁻¹] | Substance
50000 | 10000 | 50000 | Δ13Arf6 (from UniProt P62330 14-175) (domain or fragment)
240000 | 20000 | 250000 | Δ17Arf1 (from UniProt P84077 18-181) (domain or fragment)
